The text below walks through data of US20240024501A1 (BONUM THERAPEUTICS, published 2024).

The target of one assay is PD-1-Fc (UniProt Q15116 25-167, limits assumed). The assay can be described thus: cell-based or functional assay.
In the next assay the target is PD-1 (human, UniProt Q15116 25-167, limits assumed). The assay can be described thus: HTRF. On the technique in general: In TR-FRET formats the signal depends on donor and acceptor labels being close together.
The target of assay [1] is T1, human IL-2 (human, UniProt P60568 21-153, biotin label in the IL2RB blocking assay).
T1 construct: also called biotin-labeled IL-2 (Acro Biosystems IL2-H82E4)
T1 sequence (P60568 21-153 limits assumed): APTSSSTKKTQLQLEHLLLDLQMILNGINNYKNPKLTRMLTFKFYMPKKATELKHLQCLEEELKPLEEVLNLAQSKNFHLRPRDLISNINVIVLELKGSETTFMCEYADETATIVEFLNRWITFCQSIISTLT
The assay can be described thus: HTRF.
Excerpt: (§1) The PURExpress scFv proteins were used directly in HTRF binding assays and cell-based functional assays.

Assay [2] has as its target T1, human IL-2. Kind of assay: HTRF, IL-2:Fc-IL2RB.
Excerpt: as §1

Sequence of PD-1-Fc (Q15116 25-167 limits assumed): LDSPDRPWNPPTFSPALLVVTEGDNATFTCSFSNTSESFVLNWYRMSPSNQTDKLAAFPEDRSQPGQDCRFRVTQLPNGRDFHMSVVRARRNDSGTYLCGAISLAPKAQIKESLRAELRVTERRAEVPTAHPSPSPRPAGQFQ
Sequence of PD-1 (Q15116 25-167 limits assumed): as above

B1: AF4386 (other)
heavy 1: APTSSSTKKTQLQLEHLLLDLQMILNGINNYKNPKLTDMLTFEFYMPKKATELKHLQCLERELKPLEEVLNLAQSKNFHLRPRDLISNINVIVLELKGSETTFMCEYADETATIVEFLNRWITFCQSIISTLTGGGGSGGGGSGGGGSGGGGSQVQLVQSGAEVKKPGASVKVSCKASGDTFTRYYVHWVRQAPGQGLEWMGIINPSGGYASYAQKFQGRVTMTRDTSTSTVYMELSSLRSEDTAVYYCAAGLFIWGQGTLVTVSSAKTTAPSVYPLAPVCGDTTGSSVTLGCLVKGYFPEPVTLTWNSGSLSSGVHTFPAVLQSDLYTLSSSVTVTSSTWPSQSITCNVAHPASSTKVDKKIEPRGPTIKPCPPCKCPAPNAAGGPSVFIFPPKIKDVLMISLSPIVTCVVVDVSEDDPDVQISWFVNNVEVHTAQTQTHREDYNSTLRVVSALPIQHQDWMSGKEFKCKVNNKDLGAPIERTISKPKGSVRAPQVYVLPPPEEEMTKKQVTLTCMVTDFMPEDIYVEWTNNGKTELNYKNTEPVLDSDGSYFMYSDLRVEKKNWVERNSYSCSVVHEGLHNHHTTESFSRTPGK
heavy 2: QVQLVQSGAEVKKPGASVKVSCKASGDTFTRYYVHWVRQAPGQGLEWMGIINPSGGYASYAQKFQGRVTMTRDTSTSTVYMELSSLRSEDTAVYYCAAGLFIWGQGTLVTVSSAKTTAPSVYPLAPVCGDTTGSSVTLGCLVKGYFPEPVTLTWNSGSLSSGVHTFPAVLQSDLYTLSSSVTVTSSTWPSQSITCNVAHPASSTKVDKKIEPRGPTIKPCPPCKCPAPNAAGGPSVFIFPPKIKDVLMISLSPIVTCVVVDVSEDDPDVQISWFVNNVEVHTAQTQTHREDYNSTLRVVSALPIQHQDWMSGKEFKCKVNNKDLGAPIERTISKPKGSVRAPQVYVLPPPEKEMTKKQVSLTCLVKDFMPEDIYVEWTNNGKTELNYKNTEPVLKSDGSYFMYSKLTVEKKNWVERNSYSCSVVHEGLHNHHTTKSFSRTPGGGGSGGGSHHHHHH
light: DIQMTQSPSSLSASVGDRVTITCRASQSIGRYLAWYQQKPGKAPKLLIYSASNLETGVPSRFSGSGSGTDFTLTISSLQPEDFATYYCQQYNSFPVTFGPGTKVDIKRADAAPTVSIFPPSSEQLTSGGASVVCFLNNFYPKDINVKWKIDGSERQNGVLNSWTDQDSKDSTYSMSSTLTLTKDEYERHNSYTCEATHKTSTSPIVKSFNRNEC
In the case of B1, in the assay with PD-1-Fc, the “EC50 of IL-2 activity, HEK-Blue IL-2 reporter cells, IgG1 coated wells (no PD-1)” value was found to be 1.79 nM and the “EC50 of IL-2 activity, HEK-Blue IL-2 reporter cells, PD-1 coated wells” value (“EC50 of IL-2 activity … PD-1 coated wells” below) was determined as 0.05 nM.

B2: AF4387 (other)
heavy 1: APTSSSTKKTQLQLEHLLLDLQMILNGINNYKNPKLTDMLTFEFYMPKKATELKHLQCLERELKPLEEVLNLAQSKNFHLRPRDLISNINVIVLELKGSETTFMCEYADETATIVEFLNRWITFCQSIISTLTGGGGSGGGGSGGGGSGGGGSQVQLVQSGAEVKKPGASVKVSCKASGYTFTDYYMHWVRQAPGQGLEWMGIINPRAGYTSYALKFQGRVTMTRDTSTSTVYMELSSLRSEDTAVYYCTSGWDVWGQGTLVTVSSAKTTAPSVYPLAPVCGDTTGSSVTLGCLVKGYFPEPVTLTWNSGSLSSGVHTFPAVLQSDLYTLSSSVTVTSSTWPSQSITCNVAHPASSTKVDKKIEPRGPTIKPCPPCKCPAPNAAGGPSVFIFPPKIKDVLMISLSPIVTCVVVDVSEDDPDVQISWFVNNVEVHTAQTQTHREDYNSTLRVVSALPIQHQDWMSGKEFKCKVNNKDLGAPIERTISKPKGSVRAPQVYVLPPPEEEMTKKQVTLTCMVTDFMPEDIYVEWTNNGKTELNYKNTEPVLDSDGSYFMYSDLRVEKKNWVERNSYSCSVVHEGLHNHHTTESFSRTPGK
heavy 2: QVQLVQSGAEVKKPGASVKVSCKASGYTFTDYYMHWVRQAPGQGLEWMGIINPRAGYTSYALKFQGRVTMTRDTSTSTVYMELSSLRSEDTAVYYCTSGWDVWGQGTLVTVSSAKTTAPSVYPLAPVCGDTTGSSVTLGCLVKGYFPEPVTLTWNSGSLSSGVHTFPAVLQSDLYTLSSSVTVTSSTWPSQSITCNVAHPASSTKVDKKIEPRGPTIKPCPPCKCPAPNAAGGPSVFIFPPKIKDVLMISLSPIVTCVVVDVSEDDPDVQISWFVNNVEVHTAQTQTHREDYNSTLRVVSALPIQHQDWMSGKEFKCKVNNKDLGAPIERTISKPKGSVRAPQVYVLPPPEKEMTKKQVSLTCLVKDFMPEDIYVEWTNNGKTELNYKNTEPVLKSDGSYFMYSKLTVEKKNWVERNSYSCSVVHEGLHNHHTTKSFSRTPGGGGSGGGSHHHHHH
light: DIQMTQSPSSLSASVGDRVTITCRASQSISTWLAWYQQKPGKAPKLLIYAASSLDSGVPSRFSGSGSGTDFTLTISSLQPEDFATYYCQQSYSFPVTFGQGTKVEIKRADAAPTVSIFPPSSEQLTSGGASVVCFLNNFYPKDINVKWKIDGSERQNGVLNSWTDQDSKDSTYSMSSTLTLTKDEYERHNSYTCEATHKTSTSPIVKSFNRNEC
Turning to B2, in the assay with PD-1-Fc, the “EC50 of IL-2 activity, HEK-Blue IL-2 reporter cells, IgG1 coated wells (no PD-1)” value amounted to 0.419 nM and the “EC50 of IL-2 activity … PD-1 coated wells” value was 0.057 nM.

B3: AF4403 (other)
heavy 1: QVQLVESGGGVVQPGRSLRLDCKASGITFSNSGMHWVRQAPGKGLEWVAVIWYDGSKRYYADSVKGRFTISRDNSKNTLFLQMNSLRAEDTAVYYCATNDDYWGQGTLVTVSSAKTTAPSVYPLAPVCGDTTGSSVTLGCLVKGYFPEPVTLTWNSGSLSSGVHTFPAVLQSDLYTLSSSVTVTSSTWPSQSITCNVAHPASSTKVDKKIEPRGPTIKPCPPCKCPAPNAAGGPSVFIFPPKIKDVLMISLSPIVTCVVVDVSEDDPDVQISWFVNNVEVHTAQTQTHREDYNSTLRVVSALPIQHQDWMSGKEFKCKVNNKDLGAPIERTISKPKGSVRAPQVYVLPPPEKEMTKKQVSLTCLVKDFMPEDIYVEWTNNGKTELNYKNTEPVLKSDGSYFMYSKLTVEKKNWVERNSYSCSVVHEGLHNHHTTKSFSRTPGGGGGSGGGGSGGGGSGGGGSQVQLVQSGAEVKKPGASVKVSCKASGDTFTRYYVHWVRQAPGQGLEWMGIINPSGGYASYAQKFQGRVTMTRDTSTSTVYMELSSLRSEDTAVYYCAAGLFIWGQGTLVTVSSASGGGGSGGGGSGGGGSHASDIQMTQSPSSLSASVGDRVTITCRASQSIGRYLAWYQQKPGKAPKLLIYSASNLETGVPSRFSGSGSGTDFTLTISSLQPEDFATYYCQQYNSFPVTFGPGTKVDIKGGGSGGGSHHHHHH
heavy 2: QVQLVESGGGVVQPGRSLRLDCKASGITFSNSGMHWVRQAPGKGLEWVAVIWYDGSKRYYADSVKGRFTISRDNSKNTLFLQMNSLRAEDTAVYYCATNDDYWGQGTLVTVSSAKTTAPSVYPLAPVCGDTTGSSVTLGCLVKGYFPEPVTLTWNSGSLSSGVHTFPAVLQSDLYTLSSSVTVTSSTWPSQSITCNVAHPASSTKVDKKIEPRGPTIKPCPPCKCPAPNAAGGPSVFIFPPKIKDVLMISLSPIVTCVVVDVSEDDPDVQISWFVNNVEVHTAQTQTHREDYNSTLRVVSALPIQHQDWMSGKEFKCKVNNKDLGAPIERTISKPKGSVRAPQVYVLPPPEEEMTKKQVTLTCMVTDFMPEDIYVEWTNNGKTELNYKNTEPVLDSDGSYFMYSDLRVEKKNWVERNSYSCSVVHEGLHNHHTTESFSRTPGGGGGSGGGGSGGGGSAPTSSSTKKTQLQLEHLLLDLQMILNGINNYKNPKLTDMLTFEFYMPKKATELKHLQCLERELKPLEEVLNLAQSKNFHLRPRDLISNINVIVLELKGSETTFMCEYADETATIVEFLNRWITFCQSIISTLT
light: EIVLTQSPATLSLSPGERATLSCRASQSVSSYLAWYQQKPGQAPRLLIYDASNRATGIPARFSGSGSGTDFTLTISSLEPEDFAVYYCQQSSNWPRTFGQGTKVEIKRADAAPTVSIFPPSSEQLTSGGASVVCFLNNFYPKDINVKWKIDGSERQNGVLNSWTDQDSKDSTYSMSSTLTLTKDEYERHNSYTCEATHKTSTSPIVKSFNRNEC
With B3, in the assay with PD-1-Fc, the “EC50 of IL-2 activity … PD-1 coated wells” value turned out to be 0.031 nM and the “EC50 of IL-2 activity, HEK-Blue IL-2 reporter cells, control wells (no PD-1)” value is 0.062 nM.

B4: AF4404 (other)
heavy 1: QVQLVESGGGVVQPGRSLRLDCKASGITFSNSGMHWVRQAPGKGLEWVAVIWYDGSKRYYADSVKGRFTISRDNSKNTLFLQMNSLRAEDTAVYYCATNDDYWGQGTLVTVSSAKTTAPSVYPLAPVCGDTTGSSVTLGCLVKGYFPEPVTLTWNSGSLSSGVHTFPAVLQSDLYTLSSSVTVTSSTWPSQSITCNVAHPASSTKVDKKIEPRGPTIKPCPPCKCPAPNAAGGPSVFIFPPKIKDVLMISLSPIVTCVVVDVSEDDPDVQISWFVNNVEVHTAQTQTHREDYNSTLRVVSALPIQHQDWMSGKEFKCKVNNKDLGAPIERTISKPKGSVRAPQVYVLPPPEKEMTKKQVSLTCLVKDFMPEDIYVEWTNNGKTELNYKNTEPVLKSDGSYFMYSKLTVEKKNWVERNSYSCSVVHEGLHNHHTTKSFSRTPGGGGGSGGGGSGGGGSGGGGSQVQLVQSGAEVKKPGASVKVSCKASGYTFTDYYMHWVRQAPGQGLEWMGIINPRAGYTSYALKFQGRVTMTRDTSTSTVYMELSSLRSEDTAVYYCTSGWDVWGQGTLVTVSSASGGGGSGGGGSGGGGSHASDIQMTQSPSSLSASVGDRVTITCRASQSISTWLAWYQQKPGKAPKLLIYAASSLDSGVPSRFSGSGSGTDFTLTISSLQPEDFATYYCQQSYSFPVTFGQGTKVEIKGGGSGGGSHHHHHH
heavy 2: QVQLVESGGGVVQPGRSLRLDCKASGITFSNSGMHWVRQAPGKGLEWVAVIWYDGSKRYYADSVKGRFTISRDNSKNTLFLQMNSLRAEDTAVYYCATNDDYWGQGTLVTVSSAKTTAPSVYPLAPVCGDTTGSSVTLGCLVKGYFPEPVTLTWNSGSLSSGVHTFPAVLQSDLYTLSSSVTVTSSTWPSQSITCNVAHPASSTKVDKKIEPRGPTIKPCPPCKCPAPNAAGGPSVFIFPPKIKDVLMISLSPIVTCVVVDVSEDDPDVQISWFVNNVEVHTAQTQTHREDYNSTLRVVSALPIQHQDWMSGKEFKCKVNNKDLGAPIERTISKPKGSVRAPQVYVLPPPEEEMTKKQVTLTCMVTDFMPEDIYVEWTNNGKTELNYKNTEPVLDSDGSYFMYSDLRVEKKNWVERNSYSCSVVHEGLHNHHTTESFSRTPGGGGGSGGGGSGGGGSAPTSSSTKKTQLQLEHLLLDLQMILNGINNYKNPKLTDMLTFEFYMPKKATELKHLQCLERELKPLEEVLNLAQSKNFHLRPRDLISNINVIVLELKGSETTFMCEYADETATIVEFLNRWITFCQSIISTLT
light: EIVLTQSPATLSLSPGERATLSCRASQSVSSYLAWYQQKPGQAPRLLIYDASNRATGIPARFSGSGSGTDFTLTISSLEPEDFAVYYCQQSSNWPRTFGQGTKVEIKRADAAPTVSIFPPSSEQLTSGGASVVCFLNNFYPKDINVKWKIDGSERQNGVLNSWTDQDSKDSTYSMSSTLTLTKDEYERHNSYTCEATHKTSTSPIVKSFNRNEC
With B4, in the assay with PD-1-Fc, the “EC50 of IL-2 activity … PD-1 coated wells” value stood at 0.026 nM and the “EC50 of IL-2 activity, HEK-Blue IL-2 reporter cells, control wells (no PD-1)” value was 0.064 nM.

B5: PD1-IL2-R02-A08 (scFv)
scFv: QVQLVQSGAEVKKPGASVKVSCKVSGYTFTSYDINWVRQAPGQGLEWMGWINPNSGDTGYAQKFQGRVTMTRDTSTSTVYMELSSLRSEDTAVYYCARDTGLGYYYGSGDFDYWGQGTLVTVSSASGGGGSGGGGSGGGGSHASDIQMTQSPSSLSASVGDRVTITCQASQDIHNYLNWYQQKPGKAPKLLIYDVSNLETGVPSRFSGSGSGTDFTLTISSLQPEDFATYYCQQAISFPLTFGGGTKVEIK
On to B5, for which the “PD1 Binding (HTRF signal)” value in the assay with PD-1 stood at 995. The “IL2 Binding (HTRF signal)” value with human IL-2 [1] stood at 520. For the same molecule, the “IL2RB Blocking (HTRF signal)” value in the assay with human IL-2 [2] was 1610.
